From publication PMC11633101 (2024)

Molecular target: BVDV E2 protein with 6×his tag, purified from 293F cells (bovine viral diarrhea virus (BVDV), UniProt P19711 693-1066)
Test: SPR

B1: bovine CD46 protein (MedChemExpress) (receptor)
chain: CDDPPRFVSMKPQGTLKPSYSPGEQIVYECHLGFQPVTPGQVLALVCQDNNTWSSLQEGCKKRRCPTLADPTNGQVILVNGSTEFGSEVHYVCNNGYYLLGTNISYCEVSSGTGVNWSDNPPTCEKILCQPPPEIQNGKYTNSHKDVFEYNEVVTYSCDPSNGPDEYSLVGESKLTCIGNGEWSSQPPQCKVVKCVYPAIEHGTIVSGFGPKYYYKATVVLKCNEGFNLYGNSVVVCGENSTWEPELPKCIKGHPPRPTDASPPNGAEG
- Kd: 75.1 nM
